{"source": "patent US20240369485A1", "about": "“FLUORESCENT SENSOR FOR MONITORING CALCIUM DYNAMICS” (priority 2021, published 2024)", "key": {"[1]": {"experiment": "pKa determination of the chromophore", "type": "physicochemical", "description": "pKa determination. To measure the chromophore pKa of mApple, EGFP, and mCherry variants, the proteins were prepared in buffers (sodium acetate buffer for pH 3-5, MES buffer for pH 5-6, HEPES buffer for pH 6.5-8, TRIS buffer for pH 8.5-9) covering a pH range from 3 to 10. All samples were Incubated at 4° C. overnight, then the following day, the absorbance and fluorescence spectra were collected using a Shimadzu UV-1601 spectrophotometer and the Spectrofluorimeter."}, "[2]": {"experiment": "In vitro kinetics by stopped flow spectrofluorometer", "type": "binding", "description": "In vitro kinetics by stopped flow spectrofluorometer. The kinetics were determined by a Hi-Tech SF-61 stopped-flow spectrofluorometer equipped with the mercury-Xe lamp (10 mm path length, dead time of 2.2 ms) at 20° C. For R-CatchER and its variant or R-CEPIA1er, excitation was at 569 nm and a long-pass 590 nm filter was used. For G-CEPIA1er, a 530 nm long-pass filter was set with excitation at 498 nm, while for MCD1, excitation at 587 nm and a long-pass 600 nm filter were applied. For association kinetics, R-CatchER, R-CatchER variant, MCD1, R-CEPIA1er, and G-CEPIA1er were mixed with the same buffer containing an increasing concentration of Ca^2+. For disassociation kinetics, R-CatchER, R-CatchER variant, MCD1, R-CEPIA1er, and G-CEPIA1er in buffers with concentration of Ca^2+ at Kd, were mixed with 5 mM EGTA or buffer. The raw data were fitted using either single exponential for R-CatchER, R-CatchER variant, and MCD1, or double exponential equations for R-CEPIA1er and G-CEPIA1er."}, "HeLa cells": {"tested_on": "HeLa cells", "type": "cell-based", "description": "Cell culture and transfection. C2C12, HEK293 and HeLa cells were cultured and maintained in Dulbecco's modified Eagle's medium (DMEM) supplemented with 10% fetal bovine serum (FBS) and high glucose (4.5 g/L) at 37° C. R-CatchER, G-CatchER2, G-CEPIA1er, R-CEPIA1er or R-CatchER with GFP-CaSR (wt and mutations) were transfected into cells using Lipofectamine 3000 (Life Technologies), following the manufacturer's instructions. Seed cells onto sterilized 22 mm×40 mm glass microscope slides in 6 cm dishes until about 70% confluency, the day of transfection. The next day, 2 μg of plasmid were mixed with transfection reagent in the reduced serum media Opti-MEM for 4-6 h at 37° C. The media was then replaced with 3 mL of fresh DMEM and incubated at 37° C. for 48 h.\nHILO imaging of R-CatchER, G-CatchER2, R-CEPIA1er, and G-CEPIA1er. Samples were mounted in a perfusion chamber and imaged using a customized optical microscope based on a Nikon TiE inverted microscope equipped with a 100×TIRF objective (N.A. 1.49, Nikon) and a highly sensitive electron multiplying charge-coupled device (EMCCD) camera (Andor Ixon Ultra 888). A fiber-coupled 488 nm or 561 nm laser (LBX-488/LCX-561, Oxxius) was first collimated and then focused to the back focal plane of the TIRF objective using an achromatic optical lens of 200 mm focal length (AC254-200-A, Thorlabs). To achieve HILO imaging, the incident angle of the excitation laser was adjusted to be slightly smaller than the critical angles at the cell-coverslip interface through translational movement the optical axis of the incident light beam by a motorized stage (SGSP-20-20, Sigma Koki). An efficient excitation volume of few micrometers was obtained under HILO illumination. A quad-band filter set (TRF89901v2, Chroma) was used for filtering out the fluorescence background. Fluorescence images of samples were recorded at 1 Hz as the concentration of ER Ca^2+ was perturbed by perfusion of 3 μM Thapsigargin, 0.5 mM 4-cmc, 1 mM 4-cmc, 100 μM ATP, or 100 μM histamine."}, "[3]": {"tested_on": "primary hippocampal neurons", "experiment": "Wide-field imaging in neuronal cultures", "type": "cell-based, mice", "conditions": "for decrease of fluorescence upon DHPG: 100 μM DHPG; for ER Ca^2+ transient ΔF/F: field stimulation 50 Hz for 1 s", "description": "Wide-field imaging in neuronal cultures. Primary neuronal cultures were generated from embryonic day 18 or postnatal day 0-1 mice and plated onto poly-D-lysine (Sigma) coated coverslips as previously described. Neurons were maintained in neuronal feeding media (Neurobasal media, ThermoFisher Scientific) containing 1% GlutaMAX (ThermoFisher Scientific), 2% B-27 (ThermoFisher Scientific), 0.002 mg/mL Gentamicin (Sigma) with or without 10 μM 5 fluoro 2-deoxyuridine (Sigma-Aldrich) and fed every 3-4 days via half neuronal feeding media exchanges. Neurons were transfected with plasmid(s) through either lipofection or electroporation. For lipofection, at 11-12 days in vitro, cells were transfected using Lipofectamine 2000 Reagent (ThermoFisher Scientific) with a modified protocol. For electroporation, dissociated cells in suspension were electroporated in a cuvette using the 4D-Nucleofector system (Lonza) following the manufacturer's instructions prior to plating in FBS-containing Neurobasal media without B-27. Full media exchange was performed the following day with serum- and antibiotics-free Neurobasal media.\nNeurons were imaged between 12-15 days in vitro, using an inverted (Olympus IX71) or an upright (Scientifica HyperScope) wide-field fluorescence microscope equipped with an epi-fluorescence turret (Olympus), a scientific CMOS camera (Hamamatsu ORCA-Flash4.0 LT), a mercury lamp (Olympus) or an LED light source (CoolLED pE-300ultra), and an oil- (Olympus Uapo/340 40×/1.35NA) or water-immersion objective (Nikon CFI75 LWD 16×W 0.8NA), respectively. R-CatchER or jGCaMP7s was viewed using a TRITC (Chroma 41002) or FITC (Chroma 41001) fluorescence filter cube, respectively. Images were obtained every 5 s or 33.3 ms using Micro-Manager (the Vale lab, UCSF) at room temperature.\nThe external solution contained 150 mM NaCl, 3 mM KCl, 2 mM MgCl2, 2 mM CaCl2), 10 mM HEPES, and 20 mM glucose at a pH of 7.35. mGluR agonists were applied in the bath. Field electrical stimulation was applied with a stimulus isolator (World Precision Instruments A360) via an imaging chamber with two platinum wires (Warner Instruments RC-21BRFS). Trains (2 ms to 2 s at 50 HZ) of pulses (10 mA for 2 ms) were controlled by pClamp 10 software and Digidata 1440A data acquisition system (Molecular Devices). Imaging data were processed and analyzed using in-house and NeuroMatic (Jason Rothman) macros in Igor Pro 8 (WaveMetrics)."}}}
{"molecule": "R-CatchER: red genetically encoded Ca^2+ indicator, mApple A145E/K198D/R216D, SEQ ID NO: 12 (protein) EENNMAIIKEFMRFKVHMEGSVNGHEFEIEGEGEGRPYEAFQTAKLKVTKGGPLPFAWDILSPQFMYGSKVYIKHPADIPDYFKLSFPEGFRWERVMNFEDGGIIHVNQDSSLQDGVFIYKVKLRGTNFPSDGPVMQKKTMGWEESEERMYPEDGALKSEIKKRLKLKDGGHYAAEVKTTYKAKKPVQLPGAYIVDIDLDIVSHNEDYTIVEQYEDAEGRHSTGGMDELYK", "values": [{"measurement": "apparent pKa", "setting": "[1]; 0 mM Ca^2+", "result": "8.58±0.11"}, {"measurement": "apparent pKa", "setting": "[1]; 10 mM Ca^2+", "result": "7.11±0.10"}, {"measurement": "pka", "setting": "[1]; Apo", "result": "8.58 ± 0.11"}, {"measurement": "pKa (holo)", "setting": "[1]; Holo", "result": 7.1}, {"measurement": "pka", "setting": "[1]; Holo", "result": "7.11 ± 0.10"}, {"measurement": "pKa (apo)", "setting": "[1]; apo", "result": 8.6}, {"measurement": "kon", "setting": "[2]; Ca^2+ association", "result": ">7e+06", "unit": "M⁻¹ s⁻¹"}, {"measurement": "koff", "setting": "[2]; Ca^2+ dissociation", "result": ">2000", "unit": "s⁻¹"}, {"measurement": "Ca^2+ association rate kon", "setting": "[2]; stopped-flow, dead time 2.2 ms, 20° C.", "result": "≥ 7e+06", "unit": "M⁻¹ s⁻¹"}, {"measurement": "fluorescence decrease ΔF/F", "setting": "HeLa cells; 3 μM Thapsigargin (Tg), 0 mM Ca^2+", "result": "0.69±0.07"}, {"measurement": "half decay time of the first peak of ER Ca^2+ oscillations", "setting": "HeLa cells; 100 μM histamine", "result": "1.8 ± 0.1", "unit": "s"}, {"measurement": "half rise time of the first peak of ER Ca^2+ oscillations", "setting": "HeLa cells; 100 μM histamine", "result": "7.3 ± 0.1", "unit": "s"}, {"measurement": "decrease of fluorescence upon DHPG", "setting": "[3]; primary, first value (dendrites by printed order)", "result": "0.13±0.02"}, {"measurement": "decrease of fluorescence upon DHPG", "setting": "[3]; primary, second value (branchpoints by printed order)", "result": "0.08±0.01"}, {"measurement": "decrease of fluorescence upon DHPG", "setting": "[3]; secondary, first value (dendrites by printed order)", "result": "0.12±0.03"}, {"measurement": "decrease of fluorescence upon DHPG", "setting": "[3]; secondary, second value (branchpoints by printed order)", "result": "0.07±0.01"}, {"measurement": "ER Ca^2+ transient ΔF/F", "setting": "[3]; branchpoints", "result": "0.077±0.022"}, {"measurement": "ER Ca^2+ transient ΔF/F", "setting": "[3]; primary dendrites", "result": "0.083±0.039"}, {"measurement": "ER Ca^2+ transient ΔF/F", "setting": "[3]; secondary dendrites", "result": "0.036±0.017"}, {"measurement": "ER Ca^2+ transient ΔF/F", "setting": "[3]; soma", "result": "0.173±0.048"}]}
